The results in this text go back to patent publication US10280200B2, “Non-natural consensus albumin binding domains” (Janssen Biotech, Inc., priority 2012, dated 2019).

In general, Kd refers to the free concentration of one partner at which half of the binding sites on the other are occupied at equilibrium, for simple one-to-one binding. The AUC is concentration integrated over time. Low readings indicate less exposure, high ones more exposure.

Data set [1] is described as follows: Stability on incubation in PBS at 37° C. for 28 days, SDS-PAGE and Mass Spectrometry. The note with it: PBS pH 7.4, 37° C. The class given is physicochemical. The procedure:
The FN3 domain-ABDCon fusion proteins were generated using standard cloning techniques. The amino acid sequence of one of the fusion proteins, Tencon-ABDCon is shown in SEQ ID NO: 41. Other FN3 domain-ABDCon fusion proteins made were Tencon25-ABDCon, 83-ABDCon and 71-ABDCon. These proteins were produced with c-terminal poly histidine tags and purified by a combination of nickel affinity and size exclusion chromatography using standard methods. Each purified molecule was incubated in PBS pH 7.4 at 37° C. for 28 days before analysis by SDS-PAGE and Mass Spectrometry.
However one peptide sequence, TIDEWL (SEQ ID NO: 43), is present N-terminal to 5 of these protein domains. […] This protein was expressed with an N-terminal poly histidine tag and purified to homogeneity using standard methods for nickel affinity chromatography and size exclusion chromatography. Purified ABDCon12 was incubated at 37° C. in PBS for 28 days and stability assessed by SDS-PAGE and mass spectrometry.

Data set [2] can be described thus: Thermal stability by differential scanning calorimetry (DSC) in PBS. The class given is physicochemical. The procedure: A second identical scan was completed on the sample in order to assess the reversibility of thermal folding/unfolding. Data was fit to a 2-state unfolding model in order to calculate the melting temperature.
The melting temperature of ABDCon12 was determined by differential scanning calorimetry using the procedures outlined in Example 2 above in order to investigate the mechanism of stabilization for this molecule.
On the technique in general: Differential scanning calorimetry records heat flow against a reference as temperature is scanned.

Another data set addresses human serum albumin (Homo sapiens, UniProt P02768). Description: Kinetics of binding to immobilized human serum albumin, ProteOn XPR-36 surface plasmon resonance. The note with it: read-out: KD (affinity) to human albumin, conditions specified herein. The procedure: Human (SEQ ID NO: 36), Rhesus (SEQ ID NO: 37), and murine (SEQ ID NO: 38) serum albumins were purchased from Sigma (Catalogue # A4327 for human, #A3559 for murine, and #A4297 for rhesus) and resuspended in PBS at different concentrations. Each serum albumin was directly immobilized on a ligand channel in the vertical orientation of a GLC chip via standard amine coupling at 2.1 μg/mL at pH 5.0 to obtain surfaces with ligand densities of 500-1000 resonance units. […] The dissociation phases for all concentrations were monitored for two hours at a flow rate of 100 μL/min using PBST (PBS, 0.005% Tween20) as running buffer. A sixth sample (buffer only) was injected to monitor the baseline stability. The surfaces were regenerated using 1 short pulse (18 μL) of 0.8% phosphoric acid.
The raw response data were first processed by subtracting the buffer only responses and the non-specific binding between the analytes and the chip. Processed data of all five concentrations were globally fit to a 1:1 simple langmuir binding model for each ligand surface.

Data set [3] in a line: Solubility after expression and purification from E. coli. The class given is physicochemical. The note with it: expressed and purified from E. coli.
Data set [4] is described as follows: Serum half-life / pharmacokinetics of fusion proteins in mice (MSD sandwich ELISA of serum). The class given is in vivo, BALB/c female mice. The procedure: Tencon25 is a protein scaffold based on a consensus sequence of a fibronectin type III (FN3) repeat protein having a sequence shown in residues 1-90 of SEQ ID NO: 39, and described in US2011/0274623A1. […] The resulting fusion protein has a polypeptide sequence shown in SEQ ID NO: 39. A poly-histidine tag was incorporated at the C-terminus for purification purposes. […] BALB/c female mice were split into 3 groups (N=3 group 1 non-treated control, and N=33 groups 2-3). Mice were treated with a single intravenous dose of the Tencon25-ABDCon fusion protein at 2 mg/kg. The dosing was based upon the weight of the animals on the day of administration. The mice were euthanized at the following time points after the injection: 10 min, 30 min, 1, 4, 6, hours, and 1, 2, 3, 7, 10, 14 days. Blood samples were taken from each animal via cardiac puncture. The blood samples were allowed to clot at room temperature for 30 minutes, but no longer than 1 hour. The blood samples were then centrifuged at approximately 3,500 rpm for 15 minutes. Serum samples were analyzed using a homogenous sandwich ELISA on the Mesoscale Discovery platform. Streptavidin-Gold plates (Mesoscale Discovery) were blocked for 1 hour with Superblock (TBS) Tween-20 (Thermo). Polyclonal anti-Tencon25 antibody was used for both capture (biotinylated) and detection (labeled with MSD Sulfo-Tag (Mesoscale Discovery)) at 0.625 μg/ml. The antigen and antibodies were added to the plates, which were incubated for 2 hours with vigorous shaking at RT. Plates were washed with TBS-T (Sigma) and MSD Read Buffer with Surfactant (Mesoscale Discovery) was added. The plates were read using the MSD Sector Imager 6000. Data was analyzed using GraphPad Prism. Previous studies have shown that a similar, unfused Tencon molecule is cleared from the bloodstream quickly with a serum half-life of approximately 20 minutes in mice.
These molecules were dosed into mice at 2 mg/kg as described above in previous studies and analyzed using identical methods as described for the Tencon25-ABDCon fusions.

For “ABDCon12: ABDCon with TIDEWL added to the N-terminus, SEQ ID NO: 44 (TIDEWLLKEAKEKAIEELKKAGITSDYYFDLINKAKTVEGVNALKDEILKA; ABDCon12)”, the “stability (degradation) after incubation” value in data set [1] was “degradation is occurring exclusively in the polyhistidine tag and not in the ABDCon12 sequence”. Further, the “melting temperature (thermal stability)” value in data set [2] is 90.9 °C. The “increase of melting temperature compared to the original ABDcon molecule” value in data set [2] (DSC in PBS) stood at 9.4 °.
On to “ABDCon: non-natural albumin binding domain consensus, SEQ ID NO: 21: […] (LKEAKEKAIEELKKAGITSDYYFDLINKAKTVEGVNALKDEILKA; not fully specified)”, for which, in the data set with human serum albumin, the Kd is 0.075 nM.
Turning to “ABDCon11: ABDCon mutant A37Y, SEQ ID NO: 34 (LKEAKEKAIEELKKAGITSDYYFDLINKAKTVEGVNYLKDEILKA; Non-natural albumin binding domain ABDCon11)”, the “solubility of the expressed mutant” value in data set [3] is given as “insoluble”.

B1: Tencon25-ABDCon: fusion of ABDCon to the c-terminus of Tencon25 FN3 scaffold by a (G4S)2 linker, SEQ ID NO: 39 (protein)
chain: MLPAPKNLVVSEVTEDSARLSWTAPDAAFDSFLIQYQESEKVGEAIVLTVPGSERSYDLTGLKPGTEYTVSIYGVKGGHRSNPLSAIFTTGGGGSGGGGSLKEAKEKAIEELKKAGITSDYYFDLINKAKTVEGVNALKDEILKA
modifications: Fusion protein Tencon25-ABDcon
On to B1, for which, in data set [4] (2 mg/kg intravenously), the AUC was 2054.332 µg·h/mL, the Clearance came to 22.93 mL/day/kg, the “T (½)” value stood at 60.42 h and the “Volume of Distribution” value came out at 0.0832873 L/kg. Also, the serum half-life entry in data set [4] (single intravenous dose 2 mg/kg) is recorded as “over 60 hours”. Besides, in data set [1], the “stability (degradation) after incubation” value is “degraded”.

B2: Tencon-ABDCon: FN3 domain-ABDCon fusion protein, SEQ ID NO: 41 (protein)
chain: MLPAPKNLVVSEVTEDSLRLSWTAPDAAFDSFLIQYQESEKVGEAINLTVPGSERSYDLTGLKPGTEYTVSIYGVKGGHRSNPLSAEFTTGGGGSGGGGSLKEAKEKAIEELKKAGITSDYYFDLINKAKTVEGVNALKDEILKA
modifications: Tencon-ABDCon fusion protein
In the case of B2, the “stability (degradation) after incubation” value in data set [1] is on record as “degraded”.
